Results published in patent publication US20230391872A1 (ANAPTYSBIO, published 2023).

Tests used:
[1] = target: T1, human BTLA on cells (stably transfected 293c18 cells; human peripheral blood T and B cells) (human, UniProt Q7Z6A9 31-289); assay: flow cytometry (MFI DyL650) on gated CD20+ B cells of human PBMC, DyLight 650-labelled antibody, three-parameter fit [right panel (Naive B cells]
T1 construct: whole, on cells; the cells are named under assay; also called cell surface BTLA; full-length human BTLA
Experimental: (§1) Human peripheral blood mononuclear cells (PBMCs) were isolated by Histopaque (Sigma-Aldrich) density-gradient centrifugation of normal donor blood obtained from the San Diego Blood Bank (San Diego, CA). PBMCs were washed and incubated at 2×10⁷ cells/ml in FACS buffer (PBS, 1% BSA, 0.02% sodium azide) with Human BD Fc Block (2.5 μg/1×10⁶ cells, BD Biosciences) and LIVE/DEAD® Fixable Yellow Dead Cell Stain (30 μl, ThermoFisher Scientific) for 10 minutes on ice. Cells were washed once in FACS buffer, resuspended in FACS buffer at 1×10⁷ cells/ml and the following phenotyping antibodies added: Alexa Fluor 488-anti-human CD3E clone SK7, Brilliant Violet 421-anti-human CD4 clone OKT4, Brilliant Violet 785-anti-human CD8 clone SK1, and Brilliant Violet 570-anti-human CD20 clone 2H7 (50 μl each; all from BioLegend, Inc.). […] Samples were washed twice in FACS buffer, resuspended in 150 μl/well FACS buffer, and analyzed for fluorescence on a NovoCyte Flow Cytometer (ACEA Biosciences, Inc.). Data were analyzed using NovoExpress Software (ACEA Biosciences, Inc.). Median fluorescence intensities of anti-BTLA or isotype staining on gated CD4⁺ T cells (FIG. 4), CD8⁺ T cells (FIG. 4), or CD20⁺ B cells (FIG. 4) were graphed and curves fit with log(agonist) vs. response (three parameters) least squares fit for EC₅₀ calculation in GraphPad Prism (GraphPad Software, Inc.).

[2] = target: T1, human BTLA on cells (stably transfected …); assay: flow cytometry (MFI DyL650) on gated CD4+ T cells of human PBMC, DyLight 650-labelled antibody, three-parameter fit [left panel (Naive CD4+ T cells]
Experimental: as §1

[3] = target: T2, human BTLA ECD-his (monomeric human BTLA-his) (human, UniProt Q7Z6A9 31-157); assay: SPR, Biacore T200, antibody captured on anti-human IgG, monomeric human BTLA-his as analyte, 25 °C, 1:1 model; 6G3 IgG4 (APE10840.05) captured on the chip; human BTLA-his analyte
T2 construct: extracellular domain; also called human BTLA extracellular domain
T2 sequence (looked up): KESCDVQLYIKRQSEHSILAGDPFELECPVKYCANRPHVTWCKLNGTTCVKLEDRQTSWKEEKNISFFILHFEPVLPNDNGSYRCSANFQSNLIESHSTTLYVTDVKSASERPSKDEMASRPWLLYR
Experimental: Surface plasmon resonance (SPR) analyses were carried out using a Biacore T200 (GE Healthcare Life Sciences). Kinetic constants were determined using a 1:1 binding model in the Biacore T200 Evaluation Software to calculate on- and off-rates (kₐ and kd, respectively), and dissociation constants as a measure of overall affinity (KD). Anti-human IgG (GE Healthcare Life Sciences) was immobilized on a CMS chip using EDC-activated amine coupling chemistry (420 seconds contact at a flow rate of 10 μl/min). Antibodies (APE10585.04 6G3 IgG1 and APE10840.05 6G3 IgG4), each at 0.5 μg/m1) were captured in a 60 second contact with the flow cell using a flow rate of 10 μl/min. Monomeric human BTLA-his or cynomolgus monkey BTLA-his at 60 nM, 20 nM, 6.7 nM and 2.2 nM concentrations was flowed over captured antibody (480 seconds association, 1800 seconds dissociation). Runs were at 25° C. and used buffer containing 10 mM HEPES, pH 7.6, 150 mM NaCl, 3 mM EDTA, 0.05% polysorbate 20 (HBS-EP+, pH 7.6; Teknova) for the mobile phase and all dilutions. At the end of each cycle, bound antigen was removed by regeneration with two successive exposures (60 seconds and 90 seconds) to 3 M MgCl2 (30 μl/min). Sensorgrams and binding constants corresponding to the experiment are shown in FIG. 1 (human BTLA) and FIG. 1 (cynomolgus monkey BTLA). […]

[4] = target: T2, human BTLA ECD-his (monomeric human …); assay: SPR (Biacore T200), antibody captured on anti-human IgG chip, monomeric BTLA-his flowed at 60, 20, 6.7 and 2.2 nM, 1:1 binding model, 25 C [upper right panel (Hu BTLA]
Experimental: Surface plasmon resonance (SPR) analyses were carried out using a Biacore T200 (GE Healthcare Life Sciences). Kinetic constants were determined using a 1:1 binding model in the Biacore T200 Evaluation Software to calculate on- and off-rates (kₐ and kd, respectively), and dissociation constants as a measure of overall affinity (KD). Anti-human IgG (GE Healthcare Life Sciences) was immobilized on a CMS chip using EDC-activated amine coupling chemistry (420 seconds contact at a flow rate of 10 μl/min). Antibodies (APE10585.04 6G3 IgG1 and APE10840.05 6G3 IgG4), each at 0.5 μg/m1) were captured in a 60 second contact with the flow cell using a flow rate of 10 μl/min. Monomeric human BTLA-his or cynomolgus monkey BTLA-his at 60 nM, 20 nM, 6.7 nM and 2.2 nM concentrations was flowed over captured antibody (480 seconds association, 1800 seconds dissociation). Runs were at 25° C. and used buffer containing 10 mM HEPES, pH 7.6, 150 mM NaCl, 3 mM EDTA, 0.05% polysorbate 20 (HBS-EP+, pH 7.6; Teknova) for the mobile phase and all dilutions. At the end of each cycle, bound antigen was removed by regeneration with two successive exposures (60 seconds and 90 seconds) to 3 M MgCl2 (30 μl/min). Sensorgrams and binding constants corresponding to the experiment are shown in FIG. 1 (human BTLA) and FIG. 1 (cynomolgus monkey BTLA). Antibody capture levels in resonance units (RU) are listed at the right side of each panel.

B1: 6G3 IgG4 anti-BTLA antibody (APE10840 / APE12839 / APE13308) (antibody, V domains shown)
VH: QVQLVQSGAEVKKPGSSVKVSCKASGYVFSTSWMNWVRQAPGQGLEWMGRIYPGDADTNYVGKFKGRVTITADKSTTTAYMELSSLRSEDTAVYFCAKSGTFNFGNYRWYFDVWGKGTTVTVSS
VL: AIQLTQSPSSLSASVGDRVTITCRVSENIYSHLAWYQQKPGKAPKLLIYAATNLALGVPSRFSGSGSGTDYTLTISSLQPEDFATYYCQLFWGPPLTFGGGTKVEIKR
notes: Humanized antibody from a mouse hybridoma, tested as human IgG4 (detected with anti-human kappa); Some assays used labelled lots (DyLight 650, AF647, biotin, DyL488); also called 6G3 antibody; APE10840.03
**Q.** Which results are given for B1?
**A.** EC50 [1]: 0.54 nM; EC50 [2]: 2.44 nM; Kd [3]: ~5 nM; Kd [4]: 5.35 nM; koff [4]: 0.0003 s⁻¹; kon [4]: 56200 M⁻¹ s⁻¹
